Measured values published in article PMC12623717.

Legend:
[1] = molecular target: Rotavirus strain SA11 nonstructural protein 2 with the K294E change, untagged (NSP2 K294E) (rotavirus strain SA11); experiment: crystal structure; sitting drop vapor diffusion, 20 °C; protein ~8 mg/mL in 10 mM Tris-HCl pH 7.2, 50 mM NaCl, 1 mM DTT; reservoir 100 mM Tris-HCl pH 7.5, 0.2 M magnesium acetate, 12% PEG6K; space group I422, 1 molecule per asymmetric unit, octamer with D4 symmetry
[2] = molecular target: Rotavirus strain SA11 nonstructural protein 2, wildtype, untagged (NSP2WT) (rotavirus strain SA11); experiment: as above

| Substance | stoichiometry N [1] | stoichiometry N [2] |
| --- | --- | --- |
| Rotavirus strain SA11 nonstructural protein 2 with the K294E change, untagged (NSP2 K294E) (natural protein) | 8 | – |
| Rotavirus strain SA11 nonstructural protein 2, wildtype, untagged (NSP2WT) (natural protein) | – | 8 |
